These substances were tested on O=C1O[C@H]([C@@H](O)CO)C(=O)C1=O (assay: purified protein). Settings: co-substrate GSH, 50 mM phosphate pH 6.8, 0.2 mM EDTA.
HsCLIC1 (Homo sapiens) was tested, and the Km was 2753 (±939.5) μM and the kcat was 0.00542 s⁻¹.
HsCLIC1 (Homo sapiens; K13A) was tested, and the Km was 4121 (±858.6) μM and the kcat was 0.0002 s⁻¹.
In the case of HsCLIC3 (Homo sapiens), the Km is reported as 310.2 (±140.2) μM and the kcat is reported as 0.00197 s⁻¹.
With HsCLIC4 (Homo sapiens) the Km was 495.1 (±316.6) μM and the kcat was 0.00222 s⁻¹.

— publication doi:10.1101/2021.08.28.458007v1
